The Human Domainome abundance scans (Beltran et al. 2025)
± gives the uncertainty stated by the source.

B1: Ankyrin-1, residues 1405 to 1484; numbered along this chain, P16157 (parent)
chain: MKMAVISEHLGLSWAELARELQFSVEDINRIRVENPNSLLEQSVALLNLWVIREGQNANMENLYTALQSIDRGEIVNMLE

Variants of: B1
Assay: abundance fitness (aPCA) (normalised: wild type 0, dead -1); higher = more abundant; growth selection in yeast, the domain comes from the species named
Settings: Homo sapiens

In order of falling abundance fitness:
1. MKMAVISEHLGLSWAELARELQFSVEDINRIRVENPNSLLEQSVALLNLWVIREGQNANFENLYTALQSIDRGEIVNMLE  0.671 ± 0.27
2. MKMAVISEHLGLSWAELARELQFSVEDINRIRCENPNSLLEQSVALLNLWVIREGQNANMENLYTALQSIDRGEIVNMLE  0.174 ± 0.12
3. MKMAVISEHLGLSWAELARELQFSVEDINRIRVENPNSLLEQSVALLNLWVIREGTNANMENLYTALQSIDRGEIVNMLE  0.158 ± 0.12
4. MKMAVISEHLGLSWAELARELQFSVEDINRIRVENPNSLLEQSVALLNLWVIREGQNMNMENLYTALQSIDRGEIVNMLE  0.122 ± 0.17
5. MWMAVISEHLGLSWAELARELQFSVEDINRIRVENPNSLLEQSVALLNLWVIREGQNANMENLYTALQSIDRGEIVNMLE  0.098 ± 0.078
6. MKMAVISEHLGLSWAELARELQFSVEDINRIRVENPNSLLEQSVALLNLWVIREGQYANMENLYTALQSIDRGEIVNMLE  0.093 ± 0.21
7. MKMAVISEHLGLSWAELARELQFSVEDINRIRVENPNSLLEQSVALLNLWVIREGQNKNMENLYTALQSIDRGEIVNMLE  0.046 ± 0.057
8. MKMAVISEHLHLSWAELARELQFSVEDINRIRVENPNSLLEQSVALLNLWVIREGQNANMENLYTALQSIDRGEIVNMLE  0.028 ± 0.4
9. MKMAVISEHLGLSWAELARELQFSVEDIKRIRVENPNSLLEQSVALLNLWVIREGQNANMENLYTALQSIDRGEIVNMLE  0.021 ± 0.1
10. MKMAVISEHLGLSWAELARELQFSVEDINRIRVENPNSLLEQSVALLNLWVIREGQNANMENLYTCLQSIDRGEIVNMLE  0.016 ± 0.07
11. MKMAVISEHLGLSWAELARELQFSVEDINRIRSENPNSLLEQSVALLNLWVIREGQNANMENLYTALQSIDRGEIVNMLE  -0.03 ± 0.061
12. MKMAVISEHLGLSWFELARELQFSVEDINRIRVENPNSLLEQSVALLNLWVIREGQNANMENLYTALQSIDRGEIVNMLE  -0.039 ± 0.058
13. MKMAVISEHLGLSWAELARELQFSVEDINRIRVENPNSLLEQSVALLNLWVIREGQNSNMENLYTALQSIDRGEIVNMLE  -0.078 ± 0.083
14. MKMAVISEELGLSWAELARELQFSVEDINRIRVENPNSLLEQSVALLNLWVIREGQNANMENLYTALQSIDRGEIVNMLE  -0.148 ± 0.16
15. MKMAVISEHLGLSWAELARELQFSVEDINRIRVENPNSLLEQSVALLNLWVIKEGQNANMENLYTALQSIDRGEIVNMLE  -0.17 ± 0.08
16. MKMAVISEHLGLSWAELARELQFSVEDINRIRVENPNSLLEQSVALLNLWVIREGQRANMENLYTALQSIDRGEIVNMLE  -0.191 ± 0.11
17. MKMAVISEHLGLSWAELARELQFSVEDINVIRVENPNSLLEQSVALLNLWVIREGQNANMENLYTALQSIDRGEIVNMLE  -0.192 ± 0.055
18. MKMAVISEHLGLSWAELARELQFSVEDINRIRVENPNSLLEQSVALLNLWVIREGQNTNMENLYTALQSIDRGEIVNMLE  -0.195 ± 0.14
19. MYMAVISEHLGLSWAELARELQFSVEDINRIRVENPNSLLEQSVALLNLWVIREGQNANMENLYTALQSIDRGEIVNMLE  -0.318 ± 0.11
20. MKMAVISEHLGLSWAELARELQFSVEDINWIRVENPNSLLEQSVALLNLWVIREGQNANMENLYTALQSIDRGEIVNMLE  -0.328 ± 0.076
21. MKMAVISERLGLSWAELARELQFSVEDINRIRVENPNSLLEQSVALLNLWVIREGQNANMENLYTALQSIDRGEIVNMLE  -0.33 ± 0.083
22. MKSAVISEHLGLSWAELARELQFSVEDINRIRVENPNSLLEQSVALLNLWVIREGQNANMENLYTALQSIDRGEIVNMLE  -0.365 ± 0.066
23. MKMAVISEHLGLRWAELARELQFSVEDINRIRVENPNSLLEQSVALLNLWVIREGQNANMENLYTALQSIDRGEIVNMLE  -0.442 ± 0.09
24. MKMAVISEHLGLSWAELARELQFSVEDINRIRVENPNSLLEQSVALLNLWVIREGQNANMENLYTALQSIDRIEIVNMLE  -0.486 ± 0.13
25. MPMAVISEHLGLSWAELARELQFSVEDINRIRVENPNSLLEQSVALLNLWVIREGQNANMENLYTALQSIDRGEIVNMLE  -0.587 ± 0.15
26. MKMAVISEHLGLSWAELARELQFSVEDINRIRVENPNSLLEQSVALTNLWVIREGQNANMENLYTALQSIDRGEIVNMLE  -0.628 ± 0.15
27. MKMAVISEHLGLSWAELARELQFSVEDINRIRVENPNSLLEQSVALLNLWVIREGQNANMENLYTALQSIDDGEIVNMLE  -0.683 ± 0.17
28. MKMAVISEHLGLSWAELARELQFSVEDINRIRVENPNSLLEQSVALLNLWVIREPQNANMENLYTALQSIDRGEIVNMLE  -0.69 ± 0.41
29. MKMAVISEHLGLSWAELARELQFSVEDINRIRVENPNSLLEQSVALLNLWVIREGQNANMENLYTALQSIDRGFIVNMLE  -0.741 ± 0.28
30. MKMAVISEHLGLSWAELARELQFSVEDINRIRVENPNSLLEQSVALLNLWVIHEGQNANMENLYTALQSIDRGEIVNMLE  -0.758 ± 0.23
31. MKMAVISEHLGLSWAELARELQFSVEDINRIRVENLNSLLEQSVALLNLWVIREGQNANMENLYTALQSIDRGEIVNMLE  -0.774 ± 0.12
32. MKMAVISEHSGLSWAELARELQFSVEDINRIRVENPNSLLEQSVALLNLWVIREGQNANMENLYTALQSIDRGEIVNMLE  -0.852 ± 0.22
33. MKMAVISEHLGLSWAELARELQFYVEDINRIRVENPNSLLEQSVALLNLWVIREGQNANMENLYTALQSIDRGEIVNMLE  -0.856 ± 0.26
34. MKMAVISEHLGLPWAELARELQFSVEDINRIRVENPNSLLEQSVALLNLWVIREGQNANMENLYTALQSIDRGEIVNMLE  -0.863 ± 0.39
35. MKMAVISEHLGLSWAELARELQESVEDINRIRVENPNSLLEQSVALLNLWVIREGQNANMENLYTALQSIDRGEIVNMLE  -0.911 ± 0.35
